Measurements published in article PMC10080687, “Tautomer-Specific Deacylation and Ω-Loop Flexibility Explain the Carbapenem-Hydrolyzing Broad-Spectrum Activity of the KPC-2 β-Lactamase” (Journal of the American Chemical Society, 2023).

Columns and labels:
Test in all cases: purified protein
Conditions in all cases: acylates Ser70
[1] = tested on: C[C@@H](O)[C@H]1C(=O)N2C(C(=O)O)=C(S[C@@H]3CN[C@H](C(=O)Nc4cccc(C(=O)O)c4)C3)[C@H](C)[C@H]12; type: biochemical, Klebsiella pneumoniae
[2] = tested on: C[C@@H](O)[C@H]1C(=O)N2C(C(=O)O)=C(S[C@@H]3CN[C@H](C(=O)N(C)C)C3)[C@H](C)[C@H]12; type: biochemical, Klebsiella pneumoniae
[3] = tested on: CC(=O)OCC1=C(C(=O)O)N2C(=O)[C@@H](NC(=O)Cc3cccs3)[C@H]2SC1
[4] = tested on: C[C@@H](O)[C@H]1C(=O)N2C(C(=O)O)=C(SCCN=CN)C[C@H]12

KPC-2 (Klebsiella pneumoniae) showed a Km [1] of 8.6 µM, a kcat [1] of 8 s⁻¹ and a kcat/Km [1] of 920000 M⁻¹ s⁻¹. It also gave a Km [2] of 7.1 µM, a kcat [2] of 21 s⁻¹ and a kcat/Km [2] of 3e+06 M⁻¹ s⁻¹. It also gave a Km [3] of 42 µM, a kcat [3] of 110 s⁻¹ and a Km [4] of 72 µM. For the same substance, the kcat [4] was 22 s⁻¹ and the kcat/Km [4] was 310000 M⁻¹ s⁻¹.
